Drawing on patent publication US20190218553, “VON WILLEBRAND FACTOR (VWF)-TARGETING AGENTS AND METHODS OF USING THE SAME” (DUKE UNIVERSITY, published 2019), this text covers Kd for 16 molecules.

The target of data set [1] is T1, von Willebrand factor (VWF) (Homo sapiens, UniProt P04275 P04275:764-2813). Put plainly: filter; Bmax 66%; 2 mM CaCl2, 37 C. As to conditions: tags: factor VIII free, Haematologic Technologies Inc; label: 5'-32P. As for the experimental part: (§1) Affinity constants (Kd values) were determined using double-filter nitrocellulose filter binding assays (Rusconi et al, Thromb. Haemost. $4:841-848 (2000)). All binding studies were performed in binding buffer F (20 mM HEPES, pH 7.4, 150 mM NaCl, 2 mM CaCl₂, and 0.01% BSA) at 37° C. Human purified VWF (factor VIII free) was purchased from Haematologic Technologies Inc. (Essex Junction, Vt.) and used in the double-filter nitrocellulose filter binding assay to determine the Kd of the aptamers. Briefly, RNA were end-labeled at the 5′ end with T4 polynucleotide kinase (New England Biolabs, Beverly, Mass.) and [γ³²P] ATP (Amersham Pharmacia Biotech, Piscataway, N.J.) (Fitzwater and Polisky, Methods Enzymol. 267:275-301 (1996)). End-labeled RNA was diluted in binding buffer F, heat denatured at 65° C. for 5 minutes, and subsequently equilibrated at 37° C. Direct binding was performed by incubating trace ³²P-RNA with varying concentrations of VWF protein in binding buffer F at 37° C. for 5 min. The fraction of the nucleic acid-protein complex which bound to the nitrocellulose membrane was quantified with a phosphorimager (Molecular Dynamics, Sunnyvale, Calif.). Non-specific binding of the radiolabeled nucleic acid was subtracted out of the binding such that only specific binding remained (Wong and Lohman, Proc. Natl. Acad. Sci. USA 90:5428-5432 (1993)).

The target in data set [2] is T1, von Willebrand factor (VWF). Put plainly: filter; Bmax 89%; 2 mM CaCl2, 37 C. The conditions noted are these: tags: factor VIII free human purified VWF, Haematologic Technologies Inc; label: 5'-32P. As for the experimental part: as §1
Data set [3] has the same target. Put plainly: filter; Bmax 62%; 2 mM CaCl2, 37 C. The conditions noted are these: tags: factor VIII free, Haematologic Technologies Inc; label: 5'-32P. The method, then:
as §1

Data set [4] has the same target. Put plainly: filter; Bmax 59%; 2 mM CaCl2, 37 C. The conditions noted are these: tags: factor VIII free, Haematologic Technologies Inc; label: 5'-32P. As for the experimental part: as §1
Data set [5] shares this target. Put plainly: filter; Bmax 79%; 2 mM CaCl2, 37 C. As to conditions: tags: factor VIII free, Haematologic Technologies Inc; label: 5'-32P. As for the experimental part: as §1
For data set [6] the target is unchanged. As to the kind of experiment: filter; Bmax 52%; 2 mM CaCl2, 37 C. The conditions noted are these: tags: factor VIII free, Haematologic Technologies Inc; label: 5'-32P. The method, then:
as §1

Data set [7] shares this target. Put plainly: filter; Bmax 84%; 2 mM CaCl2, 37 C. The conditions noted are these: tags: factor VIII free human purified VWF, Haematologic Technologies Inc; label: 5'-32P. As for the experimental part: as §1
Data set [8] shares this target. As to the kind of experiment: filter; Bmax 75%; 2 mM CaCl2, 37 C. As to conditions: tags: factor VIII free human purified VWF, Haematologic Technologies Inc; label: 5'-32P. The method, then:
as §1

Data set [9] shares this target. Put plainly: filter; Bmax 55%; 2 mM CaCl2, 37 C. As to conditions: tags: factor VIII free, Haematologic Technologies Inc; label: 5'-32P. The method, then: as §1
Data set [10] has the same target. As to the kind of experiment: filter; Bmax 60%; 2 mM CaCl2, 37 C. The conditions noted are these: tags: factor VIII free, Haematologic Technologies Inc; label: 5'-32P. As for the experimental part:
as §1

Data set [11] shares this target. Put plainly: filter; Bmax 90%; 2 mM CaCl2, 37 C. As to conditions: tags: factor VIII free human purified VWF, Haematologic Technologies Inc; label: 5'-32P. As for the experimental part:
as §1

Data set [12] has the same target. Put plainly: filter; Bmax 70%; 20 mM HEPES pH 7.4, 150 mM NaCl, 2 mM CaCl2, 0.01% BSA, 37 C. The conditions noted are these: tags: factor VIII free, Haematologic Technologies Inc; label: 5'-32P. The method, then: as §1

Regarding ACGAACUGCCCUCAGUACUUUCAUGUUCUGACGCACAGACGU (ssRNA, 2'-F C and U; 2'-OH A and G; 3' idT) [T35], the Kd in data set [1] was found to be 12 nM.

Take ACGAACUGCCCUCAGCACUUUCAUGUGCUGACGCACAGACGU (ssRNA, 2'-F C and U; 2'-OH A and G; 3' idT) [T33]: the Kd in data set [1] was 15 nM.

B1: T93 vrt1 (ssRNA)
RNA: ACGAACUGCCCUCUAUUUCAUUUGACGCACAGACGU
modifications: 2'-F C2,U7,C9,C10,C11,U12,C26,C28,C34,U36; ribo A1,G3,G8,A25,G27,A29,G35; rest 2'-OMe; 3' idT
Consider B1, for which the Kd in data set [2] was 0.8 nM.

B2: T25 vrt10 (ssRNA)
RNA: ACGAACUGCCCUCAGCUACUUUCAUGUUGCUGACGCACAGACGU
modifications: rAfCrGrArAfCfUrGfCfCfCfUmCmAmGmCmUmAfCfUfUfUfCrAfUrGmUmUmGmCmUmGrAfCrGfCrAfCrArGrAfCrGfU-idT
Molecule B2 registered a Kd in data set [3] of 5.7 nM.

B3: T25 vrt12 (ssRNA)
RNA: B2 RNA
modifications: rAfCrGrArAfCfUrGfCfCfCfUfCrArGfCfUrAmCmUmUmUmCmAmUmGfUfUrGfCfUrGrAfCrGfCrAfCrArGrAfCrGfU-idT
Turning to B3, in data set [4], the Kd worked out at 7.1 nM.

B4: T25 vrt21 (ssRNA)
RNA: B2 RNA
modifications: rAfCrGrArAfCfUrGfCfCfCmUfCrArGfCfUrAfCfUfUfUfCrAfUrGfUfUrGfCfUrGmAfCrGfCrAfCrArGrAfCrGfU-idT
The molecule B4 registered a Kd in data set [3] of 17 nM.

B5: T25 vrt13 (ssRNA)
RNA: B2 RNA
modifications: rAfCrGmAmAmCfUrGfCfCfCfUmCmAmGmCmUmAmCmUmUmUmCmAmUmGmUmUmGmCmUmGrAfCrGfCrAmCmAmGmAfCrGfU-idT
In [5], B5 gave a Kd of 1.9 nM.

With ACGAACUGCCCUCGACUUAUGUCGACGCACAGACGU (ssRNA, 2'-F C and U; 2'-OH A and G; 3' idT) [T48], in data set [6], the affinity, expressed as Kd, was 12 nM.

B6: T89 vrt1 (ssRNA)
RNA: ACGAACUGCCCUCGUAUUAUUUCGACGCACAGACGU
modifications: 2'-F C2,U7,C9,C10,C11,U12,C26,C28,C34,U36; ribo A1,G3,G8,A25,G27,A29,G35; rest 2'-OMe; 3' idT
Turning to B6, the Kd in data set [7] is 1.2 nM.

In turn, ACGAACUGCCCUCGUAUUAUUUCGACGCACAGACGU (ssRNA, 2'-F C9,C10,C11,C26,G27,C28; rest 2'-OMe; 3' idT) [T89 vrt7] yielded a Kd in [8] of 38.5 nM.

In the case of ACGAACUGCCCUCGUAUUAUUUCGACGCACAGACGU (ssRNA, 2'-F C and U; 2'-OH A and G; 3' idT) [T89], the Kd in data set [5] stood at 12 nM.

In turn, ACGAACUGCCCUCGAUCGACGCACAGACGU (ssRNA, 2'-F C9,C10,C11,C20,C22; ribo G21; rest 2'-OMe; 3' idT) [T59 vrt26] gave a Kd in [2] of 18 nM.

As to CCCAAAACGAACUGCCCUCGAUCGACGCACAGACGU (ssRNA, 2'-F C and U; 2'-OH A and G; 3' idT) [T78], the Kd in data set [9] stood at 6.6 nM.

ACGAACUGCCCUCGAUUAUUCGACGCACAGACGU (ssRNA, 2'-F C and U; 2'-OH A and G; 3' idT) [T49] returned a Kd in [10] of 10.5 nM.

B7: T95 vrt1 (ssRNA)
RNA: ACGAACUGCCCUCUUUUUUUUGACGCACAGACGU
modifications: 2'-F C2,U7,C9,C10,C11,U12,C24,C26,C32,U34; ribo A1,G3,G8,A23,G25,A27,G33; rest 2'-OMe; 3' idT
In turn, B7 returned a Kd in [11] of 0.9 nM.

B8: VWF9.14 full length (ssRNA)
RNA: GGGAGGACGAUGCGGUGGACGAACUGCCCUCAGCUACUUUCAUGUUGCUGACGCACAGACGACUCGCUGAGGAUCCGAGA
modifications: 2'-F C and U; 2'-OH A and G
In turn, B8 came in with a Kd in [12] of 12 nM.
